Data as given in publication PMC3795040.

Molecular target: HA70 of BoNT/A (full-length, residues M1–N626) (Clostridium botulinum strain 62A (BoNT/A1-producing))
Assay: ITC; […] ([…]) […] (400 µM) […]; 23°C; 50 mM Tris pH 7.6, 100 mM NaCl; […]

synthetic nLoop peptide of NTNHA (from UniProt Q45914 116-148)
Kd: 340 nM
stoichiometry N (nLoop per HA70 trimer): 1
